We go through 3 molecules from patent US20030232052A1 (CALIFORNIA INSTITUTE OF TECHNOLOGY, published 2003).

Read-outs that look alike come from different tables or passages of the source.

Test [1] has as its target mutant Htt exon 1 with 103 polyQ repeats fused to EGFP (UniProt P42858). Briefly: cell-based or functional assay.
Test [2] addresses T1, mutant Htt exon 1 with 103 polyQ repeats fused to EGFP (UniProt P42858 1-88; P42212 1-238 = GFP).
T1 construct: Expressed in 293 cells; Order of pieces follows 'Htt exon 1-EGFP'; also called PQ103
The test can be described thus: coimmunoprecipitation from 293 cell lysates with anti-Flag Ab, blot with anti-HD1-17.
Procedure: The scFvs and IκBα in Triton X-100 cell extracts were precipitated with anti-Flag Ab, and the precipitates were subjected to SDS-PAGE.
Briefly, cells were harvested 24 hours after transfection and lysed by sonication in buffer A (25 mM Hepes, pH 7.4/2.5 mM MgCl₂/50 mM NaCl/1 mM EDTA/1% Triton X-100). After clearing the lysates by centrifugation at 14,300 rpm (Eppendorf microcentrifuge) for 10 minutes at 4° C., 200 μg of each lysate was incubated at 4° C. with rocking for 2 hours with a 40-μl slurry of anti-Flag Ab coupled to protein A beads. The beads were then washed five times in buffer A by using centrifugation at 5,000 rpm, and the complexes were resolved on SDS-PAGE. […] Secondary antibodies conjugated to horseradish peroxidase (HRP) were used to detect the reactive protein bands by enhanced chemiluminescence (Santa Cruz Biotechnology).

The target in test [3] is mutant Htt exon 1 with 103 polyQ repeats fused to EGFP (UniProt P42858). The test can be described thus: cell-based or functional assay. This is another data set of the same source.

Consider “Flag-tagged MW2 scFv expressed in 293 cells”, for which, in test [1], the SDS-insoluble aggregated Htt, scanned band at the top of the gel (no scFv: 48.8) (arbitrary units) came to 54.3 and the increase in mutant Htt-induced TUNEL staining (TUNEL+ cells), 293 cells is 67%.

B1: Flag-tagged IκBα (other, UniProt P25963 1-317, looked up, not shown: small tags and cut ends)
chain: MFQAAERPQEWAMEGPRDGLKKERLLDDRHDSGLDSMKDEEYEQMVKELQEIRLEPQEVPRGSEPWKQQLTEDGDSFLHLAIIHEEKALTMEVIRQVKGDLAFLNFQNNLQQTPLHLAVITNQPEIAEALLGAGCDPELRDFRGNTPLHLACEQGCLASVGVLTQSCTTPHLHSILKATNYNGHTCLHLASIHGYLGIVELLVSLGADVNAQEPCNGRTALHLAVDLQNPDLVSLLLKCGADVNRVTYQGYSPYQLTWGRPSTRIQQQLGQLTLENLQMLPESEDEESYDTESEFTEFTEDELPYDDCVFGGQRLTL
notes: Order of pieces follows the name Flag-IκBα; also called Flag-IκBα
As to B1, the binding result in test [2] is “no binding”.

B2: Flag-tagged MW7 scFv expressed in 293 cells (scFv)
scFv: MDYKDDDDKVAQVKLQESGGGLVQPGGSMKLSCAASGFTFSDAWMDWVRQSPEKGLSGVAEIRSKANNHATYYAESVKGRFTISRDDSKSSVYLQMNSLRAEDTGIYYCIYAGFAYWGQGTTVTVSSGGGGSGGGGSGGGGSDIELTQSPSSLAMSVGQKVTMSCKSSQSLLNSSNQKNYLAWYQQKPGQSPKLLVYFASTRESGVPDRFIGSGSGTDFTLTISSVQAEDLADYFCQQHYSTPWTFGGGTKLEIK
As for B2, the SDS-insoluble aggregated Htt, scanned band at the top of the gel (no scFv: 48.8) (arbitrary units) in test [3] stood at 0.2.
